According to patent US20220396632A1 (VERSEAU THERAPEUTICS, published 2022):
Non-standard residues stand in square brackets, D forms with d. No end group written: not given here. *: point of attachment. Biotin = O=C1N[C@H]2[C@H](CS[C@H]2CCCCC(=O)*)N1; sY = N[C@@H](Cc1ccc(OS(=O)(=O)O)cc1)C(=O)O

T1: Cynomolgus PSGL-1(ECD)-HIS (cynomolgus macaque)
T1 construct: also called Cyno PSGL1-His
T1 chain: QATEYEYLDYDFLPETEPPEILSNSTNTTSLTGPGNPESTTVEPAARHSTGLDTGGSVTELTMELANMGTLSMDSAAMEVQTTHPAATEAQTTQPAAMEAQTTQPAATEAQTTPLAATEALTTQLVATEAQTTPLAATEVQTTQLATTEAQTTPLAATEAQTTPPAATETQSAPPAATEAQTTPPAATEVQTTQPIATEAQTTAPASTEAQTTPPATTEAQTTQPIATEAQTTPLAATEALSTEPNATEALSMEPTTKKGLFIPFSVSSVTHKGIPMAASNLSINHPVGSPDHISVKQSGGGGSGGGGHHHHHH

T2: Recombinant human PSGL-1(ECD)-hFc1 (R&D Systems, Cat. 3345-PS) (human, UniProt Q14242 42-305)
T2 construct: Bought; Gln42-Val295 counted on AAC50061; also called PSGL-1-Fc; PSGL-1-hFc1 chimera; not shown: human IgG1 Fc, Pro100-Lys330
T2 sequence: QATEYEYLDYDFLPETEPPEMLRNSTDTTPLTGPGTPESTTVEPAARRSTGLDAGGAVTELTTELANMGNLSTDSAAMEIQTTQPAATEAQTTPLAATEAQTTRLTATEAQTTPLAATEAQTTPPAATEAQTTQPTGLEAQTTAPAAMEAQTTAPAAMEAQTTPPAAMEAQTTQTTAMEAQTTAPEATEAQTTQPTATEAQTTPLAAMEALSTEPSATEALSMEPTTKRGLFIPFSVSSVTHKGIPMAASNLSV

T3: Biotin Y46,48,51(SO3) PSGL-1(42-62) peptide (human, sulfotyrosine at Y46, Y48 and Y51; C-terminal Lys-biotin)
T3 construct: also called fully sulfated N-terminal PSGL-1 peptide
T3 peptide: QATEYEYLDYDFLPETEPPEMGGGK

T4: Biotin PSGL-1(42-62) peptide, unmodified (human, C-terminal Lys-biotin)
T4 construct: Residues 42-62 followed by GGGK-biotin; also called WT; wild-type
T4 peptide: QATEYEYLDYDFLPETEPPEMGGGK

T5: Sulfotyrosine D6 biotin peptide (human)
T5 construct: also called D6 peptide
T5 peptide: ENSSFY[sY][sY]D[sY]LDEVAFGGK(Biotin)


Legend:
[1] = target: T1, Cynomolgus PSGL-1(ECD)-HIS; experiment: ELISA, plate cyno PSGL-1(ECD)-HIS
Summary of the method: (§1)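 Cyno PSGL-1 ECD protein coated overnight at 4° C. at 3 ug/mL in PBS pH 7.4; anti-PSGL-1 IgG added either at single 20 nM or as 0.003-200 nM binding curve, 45 min at 37° C. Bound mAb read at A450 nm with HRP/TMB; duplicates averaged, background subtracted.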

[2] = target: T6, Cynomolgus PSGL-1(ECD)-hFc1 (cynomolgus macaque); experiment: ELISA, 20 nM mAb on plate cyno PSGL-1(ECD)-Fc
T6 construct: also called Cyno PSGL1-Fc; Cyno PSGL-1(ECD)-Fc
Summary of the method: as §1

[3] = target: T2, Recombinant human PSGL-1(ECD)-hFc1 (R&D …); experiment: blocking ELISA vs L-selectin-Fc
Summary of the method: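 Coat: PSGL-1-Fc 2.5 ug/mL, PBS pH 7.4, 4° C overnight. Ab serial dilutions in duplicate, 3% BSA buffer, 45 min 37° C. HRP-streptavidin 45 min 37° C. IC50 by sigmoidal fit.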

[4] = target: T3, Biotin Y46,48,51(SO3) PSGL-1(42-62) …; experiment: ELISA, plate-bound target
[5] = target: T2, Recombinant human PSGL-1(ECD)-hFc1 (R&D …); experiment: ELISA, plate-bound target
[6] = target: T4, Biotin PSGL-1(42-62) peptide, unmodified; experiment: ELISA, plate-bound target
[7] = target: T2, Recombinant human PSGL-1(ECD)-hFc1 (R&D …); experiment: ELISA, 50 nM mAb
Protocol: (§2) Recombinant PSGL-1-hFc1 chimera protein consisting of PSGL-1's extracellular domain (ECD) served as a positive control. […] Primary antibody was added (25 ul per well) in duplicate at 50 nM in assay buffer (blocking buffer containing 0.05% Tween®20) into test and control (just blocked) wells and the plate incubated for 45 min at 37° C.

[8] = target: T5, Sulfotyrosine D6 biotin peptide; experiment: ELISA, 50 nM mAb
Protocol: as §2

[9] = target: T3, Biotin Y46,48,51(SO3) PSGL-1(42-62) …; experiment: ELISA, immobilized biotin peptide
Summary of the method: (§3)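 In this ELISA, half-well high binding plates (Corning Cat. #3690) received 3 ug/mL/25 ul per well of biotin-tagged PSGL-1 peptides covering residues 42 to 62, diluted in PBS, pH 7.4, and coated overnight at 4° C. Duplicate readings for each antibody were averaged and the average assay background was subtracted. PSGL-1 protein or peptide was the positive control.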

[10] = target: T4, Biotin PSGL-1(42-62) peptide, unmodified; experiment: ELISA, immobilized biotin peptide
Summary of the method: as §3

T6 sequence (chain, as listed by the source limits assumed): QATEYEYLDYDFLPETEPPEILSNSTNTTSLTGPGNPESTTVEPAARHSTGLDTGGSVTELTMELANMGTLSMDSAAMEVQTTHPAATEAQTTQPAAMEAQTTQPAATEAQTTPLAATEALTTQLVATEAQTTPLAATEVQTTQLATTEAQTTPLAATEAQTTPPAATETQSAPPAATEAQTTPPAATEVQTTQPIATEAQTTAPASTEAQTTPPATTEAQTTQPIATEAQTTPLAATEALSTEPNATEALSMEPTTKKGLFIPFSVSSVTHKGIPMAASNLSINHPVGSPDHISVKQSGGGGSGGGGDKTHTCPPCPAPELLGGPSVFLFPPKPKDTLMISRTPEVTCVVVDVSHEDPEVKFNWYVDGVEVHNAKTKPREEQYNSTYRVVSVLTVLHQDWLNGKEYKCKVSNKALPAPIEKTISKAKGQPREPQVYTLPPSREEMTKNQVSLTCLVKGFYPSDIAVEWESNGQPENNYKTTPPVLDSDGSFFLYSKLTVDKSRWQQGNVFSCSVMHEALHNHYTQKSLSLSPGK

Row | Binder | EC50 [1] [nM] | A450nm [2] [A450 nm] | % max Block [3] [%] | IC50 [3] [nM] | EC50 [4] [nM] | EC50 [5] [nM] | EC50 [6] [nM] | A450nm [7] [A450nm] | binding normalized to PSGL-1 [8] | EC50 [9] [nM] | EC50 [10] [nM] | binding result [8]
1 | 18F02 (antibody, V domains shown, From mouse immunisation; only variable domains given) VH: QVQLQQPGAELVKPGASVKLSCKASGYTFTSYWMHWVKQRPGQGLEWIGMIHPNSGRTNYNEKFKSKATLTVDKSSSTAYMQLSSLTSEDSAVYYCARSDYWGQGTTLTVSS VL: DIVMTQAAFSNPVTLGTSASISCRSSKSLLHSDGITYLYWFLQRPGQSPQLLIYRMSNLASGVPDRFSGSGSGTDFTLRISRVEAEDVGVYYCAQMLEFPRTFGGGTKLEIK | 0.51 | 2 | 100 | 10 | 0.45 | 0.57 | 0.68 | 2.33 | 0.09 | 0.658 | 0.702 | –
2 | 16L15 (antibody, V domains shown, From mouse immunisation; only variable domains given) VH: DVKLVESGGGLVKLGGSLKLSCAASGFTFSSYYMSWVRQTPEKRLEWVATISNGGGSTYYPDSVKDRFTISRDNAKNTLYLQMSSLNSEDTAVYYCAKPLYYSNPWFAYWGQGTLVTVSA VL: DVLLTQTPLSLPVSLGDQASISCRSSQSIVHSNGNTYLEWYLQKPGQSPKLLIYKVSNRFSGVPDRFSGSGSGTDFTLKISRVEAEDLGVYYCFQGSHVPRTFGGGTKLEIK | 0.53 | 1.22 | 100 | 9 | 0.92 | 0.96 | 0.89 | 2.33 | 0.06 | 0.699 | 0.695 | –
3 | 9F9 (antibody, V domains shown, Control anti-PSGL-1 mAb, recombinant; only variable domains given; also called 9F6) VH: EVQLVETGGGLVQPKGSLKLSCAASGFTFNTNAMNWVRQAPGKGLEWVARIRSKSNNYATYYADSVKDRFTISRDDTQSMIYLQMNNLKTEDTGMYYCVRGGSYWYFDVWGAGTTVTVSS VL: DVLMTQTPLSLPVSLGDQASISCRSSQSIVNSNGNTYLEWYLQKPGQSPKLLIYKVSNRFSGVPDRFSGSGSGTDFTLKISRVEAEDLGVYYCFQGSHVPWTFGGGTKLEIK | – | – | 100 | 10 | 0.05 | 0.06 | 0.04 | – | – | – | – | –
4 | 43B6 (antibody, V domains shown, Control anti-PSGL-1 mAb, recombinant; only variable domains given; also called 43B3) VH: EVQLQQSGPDLVKPGALVKISCKASGYSFTAYYIHWVKQSHGKSLEWIGRVNPNTGGTSYNPKFKGKAILNVDKSSSTAYMELRSLTSEDSAVYYCARSGSPYYRYDDWGQGTTLTVSS VL: ENVLTQSPAIMSASPGEKVTMTCRASSTVNSTYLHWFQQKSGASPKLWIYGSSNLASGVPARFSGSGSGTSYSLTISSVEAEDAATYYCQQYSGYPLTFGAGTTLELK | – | – | 100 | 6 | 0.04 | 0.05 | 0.03 | – | – | – | – | –
5 | 2E12 (antibody, V domains shown, Mouse hybridoma mAb; only variable domains given) VH: QVQLQQSGAELARPGASVKLSCKASGYTFTNYGLNWVKQRTGQGLEWIGEIYPRSGNTYYNEKFKGKATLTADKSSSTAYMQLSSLTSEDSAVYFCATEGAYWGQGTLVTVSA VL: DIVMTQTPLTLSVTIGQPASISCKSSQSLLHGNGKTYLNWLLQRPGQSPKLLIYLVSKLESGIPDRFSGSGSGTDFTLEISRVEAEDLGIYYCLQSTHFPRTFGGGTKLEIK | 0.58 | – | 0 | – | 1.21 | 0.6 | 1.02 | 1.99 | 0.06 | 0.87 | 0.694 | –
6 | 5E12 (antibody, V domains shown, Mouse hybridoma mAb; only variable domains given) VH: EIQLQQSGAELVRPGASVKLSCTASGFNIKDDYIHWVKQRPEQGLEWIGRIDPANGNTKSAPKFQDKATITADTSSNTAYLHLSSLTSEDTAVYYCSIRFAYWGQGTLVTVSA VL: DVVMTQTPLSLSVSLGDQASISCRSSQSLVYRNGDTYLHWFLQKPGQSPKLLIYKVSNRFSGVPDRFSGSGSGTDFTLKISRVEAEDLGIYFCSQNTHVPYTFGGGTKLEIK | 0.59 | – | 0 | – | 0.92 | 0.51 | 0.86 | 2.05 | 0.03 | 0.633 | 0.539 | –
7 | 19I01 (antibody, V domains shown, From mouse immunisation; only variable domains given; also called 19101) VH: EVQLVESGGGLVKPGGSRKLSCAASGFTFSDYGMHWVRQAPEKGLEWVAYISSGSSTIYYADTVKGRFTISRDNAKNTLFLQMTSLRSEDTAMYYCARGVDGYWGQGTTLTVSS VL: DVVMTQTPLSLPVSLGDQASISCRSSQSLVHSNGNTYLHWYLQKPGQSPKFLIYKVSNRFSGVPDRFSGSGSGTDFTLKISRVEAEDLGVYFCSQTTHVPLTFGAGTKLELK | 0.68 | – | 100 | 5 | 0.92 | 1.23 | 0.92 | 2.33 | 0.02 | 0.844 | 0.844 | no binding (tested: 50 nM)
